In patent US20200262877A1, “ION CHANNEL-BINDING PEPTIDES AND METHODS OF USE THEREOF” (priority 2017, published 2020):

Columns and labels:
α4β2 = target: T1, α4β2 (Homo sapiens, UniProt P17787+P43681); assay: Ion channel panel (IonWorks Barracuda): α4β2; type: cell-based; details: 100% = no change, <100% = inhibition
T1 construct: host or cells: HEK293 or CHO
Procedure, shortened: (§1)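 Peptides were tested in duplicate at final 20 μM and 200 nM, with concentration set by amino acid analysis, in HEPES-buffered saline. They were applied for at least 5 min to HEK293 or CHO cells transfected with each channel. Currents were expressed as % inhibition, 1-(Ipeptide/Icontrol)×100, or % activation, Ipeptide/Icontrol×100, against a channel-matched reference compound.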

Kir2.1 = target: T2, Kir2.1 (Homo sapiens, UniProt P63252); assay: Ion channel panel (IonWorks Barracuda): Kir2.1; type: cell-based; details: 100% = no change, <100% = inhibition
T2 construct: host or cells: HEK293 or CHO
T2 sequence (P63252 whole entry): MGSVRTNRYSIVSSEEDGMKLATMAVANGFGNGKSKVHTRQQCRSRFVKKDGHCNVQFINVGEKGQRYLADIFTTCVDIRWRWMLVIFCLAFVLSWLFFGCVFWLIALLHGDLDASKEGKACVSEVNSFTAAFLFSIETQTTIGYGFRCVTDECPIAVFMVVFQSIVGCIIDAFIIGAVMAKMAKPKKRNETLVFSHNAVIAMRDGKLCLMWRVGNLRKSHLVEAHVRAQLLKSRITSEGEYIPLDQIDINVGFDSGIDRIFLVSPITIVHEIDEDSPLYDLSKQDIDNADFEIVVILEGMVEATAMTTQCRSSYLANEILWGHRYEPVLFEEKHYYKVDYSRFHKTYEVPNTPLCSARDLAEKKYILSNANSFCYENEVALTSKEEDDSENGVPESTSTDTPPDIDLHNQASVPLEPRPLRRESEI
Procedure, shortened: as §1

GABA = assay: Ion channel panel (IonWorks Barracuda): GABA; type: cell-based; details: 100% = no change, <100% = inhibition
Procedure, shortened: as §1

Kv2.1 = target: T3, Kv2.1 (Homo sapiens, UniProt Q14721); assay: cell-based; details: 100% = no change, <100% = inhibition
T3 construct: host or cells: HEK293 or CHO
Procedure, shortened: as §1

Cav2.1 = target: T4, Cav2.1 (Homo sapiens, UniProt O00555); assay: cell-based; details: 100% = no change, <100% = inhibition
T4 construct: host or cells: HEK293 or CHO
Procedure, shortened: as §1

Cav2.2 = target: T5, Cav2.2 (Homo sapiens, UniProt Q00975); assay: cell-based; details: 100% = no change, <100% = inhibition
T5 construct: host or cells: HEK293 or CHO
Procedure, shortened: as §1

NR2A = target: T6, NR2A (Homo sapiens, UniProt Q12879); assay: Ion channel panel (IonWorks Barracuda): NR2A; type: cell-based; details: 100% = no change, <100% = inhibition
T6 construct: host or cells: HEK293 or CHO
Procedure, shortened: as §1

Nav1.7 = target: T7, Nav1.7 (Homo sapiens, UniProt Q15858); assay: cell-based; type: cell-based; details: 100% = no change; for Activity of Nav1.7 with peptide, expressed as a percentage of the reference compound: peptide at 0.2 μM; for Activity of Nav1.7 with peptide (percentage of the reference compound): peptide at 20 μM
T7 construct: host or cells: HEK293 or CHO
T7 sequence (Q15858 whole entry): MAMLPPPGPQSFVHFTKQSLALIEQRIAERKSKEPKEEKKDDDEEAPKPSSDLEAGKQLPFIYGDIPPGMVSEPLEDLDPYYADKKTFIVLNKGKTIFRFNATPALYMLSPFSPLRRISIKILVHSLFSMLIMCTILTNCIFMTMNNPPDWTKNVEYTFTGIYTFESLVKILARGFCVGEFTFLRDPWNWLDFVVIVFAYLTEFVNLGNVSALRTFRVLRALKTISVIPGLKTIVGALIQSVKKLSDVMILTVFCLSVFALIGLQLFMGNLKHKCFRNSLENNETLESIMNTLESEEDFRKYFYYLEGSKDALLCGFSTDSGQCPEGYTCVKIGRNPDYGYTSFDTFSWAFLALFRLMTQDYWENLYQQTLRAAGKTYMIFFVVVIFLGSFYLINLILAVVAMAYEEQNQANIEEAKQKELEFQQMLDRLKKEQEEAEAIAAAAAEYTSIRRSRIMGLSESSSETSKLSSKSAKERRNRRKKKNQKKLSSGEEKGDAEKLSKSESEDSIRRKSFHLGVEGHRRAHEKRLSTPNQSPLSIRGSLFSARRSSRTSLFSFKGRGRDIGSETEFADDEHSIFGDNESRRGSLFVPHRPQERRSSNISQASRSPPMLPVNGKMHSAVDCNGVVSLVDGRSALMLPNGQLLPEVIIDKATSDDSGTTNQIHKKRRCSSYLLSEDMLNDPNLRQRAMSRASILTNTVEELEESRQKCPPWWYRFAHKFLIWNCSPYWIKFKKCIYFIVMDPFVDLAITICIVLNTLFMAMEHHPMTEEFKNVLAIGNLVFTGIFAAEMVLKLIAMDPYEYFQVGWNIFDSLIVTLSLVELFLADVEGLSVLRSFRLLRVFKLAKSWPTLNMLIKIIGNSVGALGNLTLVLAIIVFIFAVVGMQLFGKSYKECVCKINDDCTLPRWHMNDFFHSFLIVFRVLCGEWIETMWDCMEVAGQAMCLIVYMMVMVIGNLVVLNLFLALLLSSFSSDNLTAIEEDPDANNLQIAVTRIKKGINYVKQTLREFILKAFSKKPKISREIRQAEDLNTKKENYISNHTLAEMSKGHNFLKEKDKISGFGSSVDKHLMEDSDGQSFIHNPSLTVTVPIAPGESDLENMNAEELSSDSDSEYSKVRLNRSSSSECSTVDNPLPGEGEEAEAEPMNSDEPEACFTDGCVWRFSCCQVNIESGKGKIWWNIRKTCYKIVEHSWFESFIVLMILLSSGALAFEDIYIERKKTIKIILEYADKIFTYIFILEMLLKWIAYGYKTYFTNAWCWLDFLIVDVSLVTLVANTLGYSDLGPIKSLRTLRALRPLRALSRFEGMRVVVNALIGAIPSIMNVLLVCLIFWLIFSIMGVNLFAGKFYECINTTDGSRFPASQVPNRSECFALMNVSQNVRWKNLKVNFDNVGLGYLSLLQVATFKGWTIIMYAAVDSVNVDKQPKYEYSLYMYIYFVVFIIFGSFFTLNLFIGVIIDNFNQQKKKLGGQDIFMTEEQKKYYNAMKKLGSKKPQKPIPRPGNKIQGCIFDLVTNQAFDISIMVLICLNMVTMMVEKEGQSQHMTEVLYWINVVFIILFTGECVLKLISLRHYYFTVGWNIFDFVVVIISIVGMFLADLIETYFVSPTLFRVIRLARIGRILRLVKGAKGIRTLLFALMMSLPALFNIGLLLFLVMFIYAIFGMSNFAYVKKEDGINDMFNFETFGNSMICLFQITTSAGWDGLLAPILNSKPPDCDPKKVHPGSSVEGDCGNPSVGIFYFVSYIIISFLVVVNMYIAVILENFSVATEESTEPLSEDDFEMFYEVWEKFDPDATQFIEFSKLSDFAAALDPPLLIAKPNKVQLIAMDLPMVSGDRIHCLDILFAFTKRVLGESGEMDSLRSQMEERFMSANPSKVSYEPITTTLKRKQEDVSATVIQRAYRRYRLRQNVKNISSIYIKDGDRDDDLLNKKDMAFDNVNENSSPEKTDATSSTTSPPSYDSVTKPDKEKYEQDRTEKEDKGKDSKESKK

Kv1.1 = target: T8, Kv1.1 (Homo sapiens, UniProt Q09470); assay: cell-based; type: cell-based; details: 100% = no change, <100% = inhibition
T8 construct: host or cells: HEK293 or CHO
Procedure, shortened: as §1

Kv1.2 = target: T9, Kv1.2 (Homo sapiens, UniProt P16389); assay: cell-based; type: cell-based; details: 100% = no change, <100% = inhibition
T9 construct: host or cells: HEK293 or CHO
Procedure, shortened: as §1

Kv1.3 = target: T10, Kv1.3 (Homo sapiens, UniProt P22001); assay: cell-based; type: cell-based; details: 100% = no change, <100% = inhibition
T10 construct: host or cells: HEK293 or CHO
T10 sequence (P22001 whole entry): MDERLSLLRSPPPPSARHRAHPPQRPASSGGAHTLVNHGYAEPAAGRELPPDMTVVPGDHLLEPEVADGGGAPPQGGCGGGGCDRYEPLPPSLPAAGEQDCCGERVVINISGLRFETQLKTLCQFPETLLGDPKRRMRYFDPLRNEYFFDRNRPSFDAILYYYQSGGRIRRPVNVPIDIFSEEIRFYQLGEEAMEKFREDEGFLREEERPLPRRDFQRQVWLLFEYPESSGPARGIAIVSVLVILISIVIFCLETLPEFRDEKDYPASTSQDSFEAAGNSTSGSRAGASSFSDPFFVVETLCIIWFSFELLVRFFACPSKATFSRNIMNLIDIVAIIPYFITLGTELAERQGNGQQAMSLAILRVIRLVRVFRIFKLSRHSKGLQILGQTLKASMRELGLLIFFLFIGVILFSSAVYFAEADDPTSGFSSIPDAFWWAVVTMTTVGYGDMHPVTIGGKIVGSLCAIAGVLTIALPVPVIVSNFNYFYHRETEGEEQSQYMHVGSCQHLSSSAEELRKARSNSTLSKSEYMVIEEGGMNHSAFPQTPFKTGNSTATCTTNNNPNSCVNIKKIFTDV
Procedure, shortened: as §1

TRPV1 = target: T11, TRPV1 (Homo sapiens, UniProt Q8NER1); assay: Ion channel panel (IonWorks Barracuda): TRPV1; type: cell-based; details: 100% = no change, <100% = inhibition
T11 construct: host or cells: HEK293 or CHO
Procedure, shortened: as §1

5HT3a = target: T12, 5HT3a (Homo sapiens, UniProt P46098); assay: Ion channel panel (IonWorks Barracuda): 5HT3a; type: cell-based
T12 construct: host or cells: HEK293 or CHO
T12 sequence (P46098 whole entry, looked up): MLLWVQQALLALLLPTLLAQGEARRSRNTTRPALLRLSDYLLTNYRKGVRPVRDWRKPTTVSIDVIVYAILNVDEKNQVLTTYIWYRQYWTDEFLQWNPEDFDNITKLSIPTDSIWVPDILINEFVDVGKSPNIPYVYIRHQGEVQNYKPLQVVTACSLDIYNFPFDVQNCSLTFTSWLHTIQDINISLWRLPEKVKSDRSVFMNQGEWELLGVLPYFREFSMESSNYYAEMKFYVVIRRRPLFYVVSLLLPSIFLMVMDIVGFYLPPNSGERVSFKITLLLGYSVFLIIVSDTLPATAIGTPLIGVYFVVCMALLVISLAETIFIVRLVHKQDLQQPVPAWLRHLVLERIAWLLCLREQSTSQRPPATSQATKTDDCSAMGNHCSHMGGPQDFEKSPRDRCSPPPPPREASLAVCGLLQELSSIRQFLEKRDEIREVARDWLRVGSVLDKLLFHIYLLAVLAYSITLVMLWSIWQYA
Procedure, shortened: as §1

α3β4 = target: T13, α3β4 (Homo sapiens, UniProt P30926+P32297); assay: Ion channel panel (IonWorks Barracuda): α3β4; type: cell-based; details: 100% = no change, <100% = inhibition
T13 construct: host or cells: HEK293 or CHO
Procedure, shortened: as §1

TRPA1 = target: T14, TRPA1 (Homo sapiens, UniProt O75762); assay: Ion channel panel (IonWorks Barracuda): TRPA1; type: cell-based; details: 100% = no change, <100% = inhibition
T14 construct: host or cells: HEK293 or CHO
Procedure, shortened: as §1

hERG = hERG (Homo sapiens, UniProt Q12809); assay: in vitro; details: 100% = no change, <100% = inhibition
Procedure, shortened: as §1

Nav1.5 = Nav1.5 (Homo sapiens, UniProt Q14524); assay: in vitro; details: 100% = no change; for Activity of Nav1.5 with peptide, expressed as a percentage of the reference compound: peptide at 0.2 μM; for Activity of Nav1.5 with peptide (percentage of the reference compound): peptide at 20 μM
Nav1.5, sequence (Q14524 whole entry): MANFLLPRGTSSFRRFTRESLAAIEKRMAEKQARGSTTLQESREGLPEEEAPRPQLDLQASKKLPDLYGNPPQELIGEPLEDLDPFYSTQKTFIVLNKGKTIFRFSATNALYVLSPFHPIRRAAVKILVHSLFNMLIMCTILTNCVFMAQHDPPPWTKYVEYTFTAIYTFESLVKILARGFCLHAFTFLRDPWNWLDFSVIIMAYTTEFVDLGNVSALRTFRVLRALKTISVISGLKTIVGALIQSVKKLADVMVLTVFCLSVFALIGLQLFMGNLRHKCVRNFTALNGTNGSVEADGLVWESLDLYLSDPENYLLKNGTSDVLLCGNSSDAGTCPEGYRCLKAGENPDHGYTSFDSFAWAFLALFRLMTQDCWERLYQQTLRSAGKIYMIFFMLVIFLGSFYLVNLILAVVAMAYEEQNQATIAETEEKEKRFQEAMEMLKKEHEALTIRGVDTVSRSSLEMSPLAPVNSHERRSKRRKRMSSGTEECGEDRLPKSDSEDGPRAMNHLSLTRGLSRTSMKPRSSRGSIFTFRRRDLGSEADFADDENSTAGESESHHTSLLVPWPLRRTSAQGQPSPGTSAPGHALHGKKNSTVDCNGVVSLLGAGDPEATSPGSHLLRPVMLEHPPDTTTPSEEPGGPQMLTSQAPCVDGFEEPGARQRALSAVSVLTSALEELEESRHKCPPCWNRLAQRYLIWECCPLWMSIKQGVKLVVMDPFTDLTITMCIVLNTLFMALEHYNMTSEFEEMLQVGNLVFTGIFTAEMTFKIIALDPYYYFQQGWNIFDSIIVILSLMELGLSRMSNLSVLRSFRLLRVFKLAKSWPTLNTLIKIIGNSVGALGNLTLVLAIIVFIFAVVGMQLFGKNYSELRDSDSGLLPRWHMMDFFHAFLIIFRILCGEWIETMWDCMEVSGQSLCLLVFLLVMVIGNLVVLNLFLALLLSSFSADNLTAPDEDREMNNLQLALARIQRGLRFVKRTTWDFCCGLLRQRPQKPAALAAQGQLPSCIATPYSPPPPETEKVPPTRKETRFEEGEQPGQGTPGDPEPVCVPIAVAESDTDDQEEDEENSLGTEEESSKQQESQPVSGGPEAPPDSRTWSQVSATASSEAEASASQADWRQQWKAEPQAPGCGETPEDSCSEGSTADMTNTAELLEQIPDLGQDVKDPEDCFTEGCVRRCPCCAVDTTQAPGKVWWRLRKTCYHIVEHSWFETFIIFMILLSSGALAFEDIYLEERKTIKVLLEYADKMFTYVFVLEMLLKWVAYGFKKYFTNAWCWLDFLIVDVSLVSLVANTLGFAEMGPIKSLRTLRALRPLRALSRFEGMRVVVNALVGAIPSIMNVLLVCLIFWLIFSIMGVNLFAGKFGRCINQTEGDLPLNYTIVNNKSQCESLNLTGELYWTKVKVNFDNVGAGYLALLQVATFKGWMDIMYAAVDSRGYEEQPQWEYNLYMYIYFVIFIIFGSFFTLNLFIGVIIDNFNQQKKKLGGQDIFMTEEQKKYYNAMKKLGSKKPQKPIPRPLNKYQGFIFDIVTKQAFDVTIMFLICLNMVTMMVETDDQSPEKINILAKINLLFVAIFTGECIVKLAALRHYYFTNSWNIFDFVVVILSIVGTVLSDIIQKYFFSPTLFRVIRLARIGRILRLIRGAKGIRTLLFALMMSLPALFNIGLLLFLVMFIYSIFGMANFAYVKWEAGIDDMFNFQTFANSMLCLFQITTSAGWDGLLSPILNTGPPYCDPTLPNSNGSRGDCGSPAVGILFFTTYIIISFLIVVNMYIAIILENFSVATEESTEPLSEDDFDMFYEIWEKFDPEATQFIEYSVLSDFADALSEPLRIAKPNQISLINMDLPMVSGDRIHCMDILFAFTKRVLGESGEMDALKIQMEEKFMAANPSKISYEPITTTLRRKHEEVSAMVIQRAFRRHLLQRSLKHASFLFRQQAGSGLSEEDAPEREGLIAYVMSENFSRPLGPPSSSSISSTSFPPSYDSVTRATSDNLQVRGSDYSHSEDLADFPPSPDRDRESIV
Procedure, shortened: as §1

NR2B = target: T15, NR2B (Homo sapiens, UniProt Q13224); assay: Ion channel panel (IonWorks Barracuda): NR2B; type: cell-based; details: 100% = no change, <100% = inhibition
T15 construct: host or cells: HEK293 or CHO
Procedure, shortened: as §1

[1] = first of two Nav1.7 columns (probably TP1)
[2] = second of two Nav1.7 columns (probably TP2)
[3] = first of two Nav1.5 columns (probably TP1)
[4] = second of two Nav1.5 columns (probably TP2)

3 (GSSEKDCIKHLQRCRENKDCCSKKCSRRGTNPEKRCR) [compound 3]
Activity of a4b2 with peptide, expressed as a percentage of the reference compound (α4β2; peptide at 0.2 μM): 93% | Activity of a4b2 with peptide (percentage of the reference compound) (α4β2; peptide at 20 μM): 91% | Activity of Kir2.1 with peptide, expressed as a percentage of the reference compound (Kir2.1; peptide at 0.2 μM): 107% | Activity of Kir2.1 with peptide (percentage of the reference compound) (Kir2.1; peptide at 20 μM): 93% | Activity of GABA with peptide, expressed as a percentage of the reference compound (GABA; peptide at 0.2 μM): 77% | Activity of GABA with peptide (percentage of the reference compound) (GABA; peptide at 20 μM): 111% | Activity of Kv2.1 with peptide, expressed as a percentage of the reference compound (Kv2.1; peptide at 0.2 μM): 80% | Activity of Kv2.1 with peptide (percentage of the reference compound) (Kv2.1; peptide at 20 μM): 81% | Activity of Cav2.1 with peptide, expressed as a percentage of the reference compound (Cav2.1; peptide at 0.2 μM): 102% | Activity of Cav2.1 with peptide (percentage of the reference compound) (Cav2.1; peptide at 20 μM): 131% | Activity of Cav2.2 with peptide, expressed as a percentage of the reference compound (Cav2.2; peptide at 0.2 μM): 103% | Activity of Cav2.2 with peptide (percentage of the reference compound) (Cav2.2; peptide at 20 μM): 110% | Activity of NR2A with peptide, expressed as a percentage of the reference compound (NR2A; peptide at 0.2 μM): 97% | Activity of NR2A with peptide (percentage of the reference compound) (NR2A; peptide at 20 μM): 100% | Activity of Nav1.7 with peptide, expressed as a percentage of the reference compound (Nav1.7; [1]): 107% | Activity of Nav1.7 with peptide, expressed as a percentage of the reference compound (Nav1.7; [2]): 113% | Activity of Nav1.7 with peptide (percentage of the reference compound) (Nav1.7; [1]): 90% | Activity of Nav1.7 with peptide (percentage of the reference compound) (Nav1.7; [2]): 68% | Activity of Kv1.1 with peptide, expressed as a percentage of the reference compound (Kv1.1; peptide at 0.2 μM): 99% | Activity of Kv1.1 with peptide (percentage of the reference compound) (Kv1.1; peptide at 20 μM): 73% | Activity of Kv1.2 with peptide, expressed as a percentage of the reference compound (Kv1.2; peptide at 0.2 μM): 88% | Activity of Kv1.2 with peptide (percentage of the reference compound) (Kv1.2; peptide at 20 μM): 45% | Activity of Kv1.3 with peptide, expressed as a percentage of the reference compound (Kv1.3; peptide at 0.2 μM): 92% | Activity of Kv1.3 with peptide (percentage of the reference compound) (Kv1.3; peptide at 20 μM): 87% | Activity of TRPV1 with peptide, expressed as a percentage of the reference compound (TRPV1; peptide at 0.2 μM): 107% | Activity of TRPV1 with peptide (percentage of the reference compound) (TRPV1; peptide at 20 μM): 95% | Activity of 5HT3a with peptide (percentage of the reference compound) (5HT3a): 98% | Activity of 5HT3a with peptide, expressed as a percentage of the reference compound (5HT3a): 109% | Activity of a3b4 with peptide, expressed as a percentage of the reference compound (α3β4; peptide at 0.2 μM): 99% | Activity of a3b4 with peptide (percentage of the reference compound) (α3β4; peptide at 20 μM): 92% | Activity of TRPA1 with peptide, expressed as a percentage of the reference compound (TRPA1; peptide at 0.2 μM): 105% | Activity of TRPA1 with peptide (percentage of the reference compound) (TRPA1; peptide at 20 μM): 117% | Activity of hERG with peptide, expressed as a percentage of the reference compound (hERG; peptide at 0.2 μM): 121% | Activity of hERG with peptide (percentage of the reference compound) (hERG; peptide at 20 μM): 81% | Activity of Nav1.5 with peptide, expressed as a percentage of the reference compound (Nav1.5; [3]): 113% | Activity of Nav1.5 with peptide, expressed as a percentage of the reference compound (Nav1.5; [4]): 111% | Activity of Nav1.5 with peptide (percentage of the reference compound) (Nav1.5; [3]): 114% | Activity of Nav1.5 with peptide (percentage of the reference compound) (Nav1.5; [4]): 115% | Activity of NR2B with peptide, expressed as a percentage of the reference compound (NR2B; peptide at 0.2 μM): 93% | Activity of NR2B with peptide (percentage of the reference compound) (NR2B; peptide at 20 μM): 74%
